Results reported in patent US20210380994A1, “LACTOCOCCUS LACTIS EXPRESSION SYSTEM FOR DELIVERING PROTEINS EFFICACIOUS FOR THE TREATMENT OF EPITHELIAL BARRIER FUNCTION DISORDERS” (Second Genome, Inc., priority 2018, published 2021).

B1: SG-11: Roseburia hominis protein comprising SEQ ID NO:3; tested as SEQ ID NO:5, SEQ ID NO:7 or FLAG-tagged SEQ ID NO:9 (protein, listed as Rosburia hominis)
chain: LEGEESVVYVGKKGVIASLDVETLDQSYYDETELKSYVDAEVEDYTAEHGKNAVKVESLKVEDGVAKLKMKYKTPEDYTAFNGIELYQGKVVASLAAGYVYDGEFARVEEGKVVGAATKQDIYSEDDLKVAIIRANTDVKVDGEICYVSCQNVKLTGKDSVSIRDGYYLETGSVTASVDVTGQESVGTEQLSGTEQMEMTGEPVNADDTEQTEAAAGDGSFETDVYTFIVYK
B2: SG-11V5: variant of SEQ ID NO:7 with N53S, N83S, C147V, C151S (protein)
chain: MLEGEESVVYVGKKGVIASLDVETLDQSYYDETELKSYVDAEVEDYTAEHGKSAVKVESLKVEDGVAKLKMKYKTPEDYTAFSGIELYQGKVVASLAAGYVYDGEFARVEEGKVVGAATKQDIYSEDDLKVAIIRANTDVKVDGEIVYVSSQNVKLTGKDSVSIRDGYYLETGSVTASVDVTGQESVGTEQLSGTEQMEMTGEPVNADDTEQTEAAAGDGSFETDVYTFIVYK
modifications: Artificial variant of SG-11 (N53S, N83S, C147V, C151S)

Legend:
[1] = stability by analytical size exclusion chromatography and Ellman's reagent assay (Example 9); assay type: physicochemical
Description: The stability of SG-11 (SEQ ID NO:9) was evaluated following the incubation at 37° C. for one week and at 4° C. for 3 weeks in Buffer C (100 mM sodium phosphate, pH 7.0, 0.5 M sorbitol). The stability was assessed by monitoring aggregation formation with analytical size exclusion chromatography (SEC) equilibrated with Buffer D (100 mM sodium phosphate, pH 7.0, 10% glycerol). […] The cause of the aggregation was investigated as follows. There are two cysteine residues found in SG-11 at positions 147 and 151 (relative to SEQ ID NO:7). […] As free sulphydryl groups could cause aggregation by forming unpreferable intermolecular disulfide bonds, it was examined whether the presence of reducing agent, such as β-mercaptoethanol, could prevent the aggregation.

[2] = system: Syrian Golden Hamsters, mucositis of the left buccal cheek pouch; experiment: radiation-induced oral mucositis model; assay type: in vivo, hamster; details: for % Days ≥3 (percent of animal days with a mucositis score ≥3): Vehicle 59.52%; for Days <3 (animal days with a mucositis score <3) / Days ≥3 (animal days with a mucositis score ≥3): through Day 28; for days of improvement in mucositis scores compared to the Vehicle control group: topical b.i.d.
Description: Forty-eight (48) male Syrian Golden Hamsters were used in the study.
Mucositis was induced by administering a single dose of radiation (40 Gy) directed to the left buccal cheek pouch at a rate of 2-2.5 Gy/min administered on Day 0. Radiation was generated with a 160 kilovolt potential (18.75-ma) source at a fecal distance of 10 cm, hardened with a 3.0 mm Al filtration system. Prior to irradiation, animals were anesthetized with an intraperitoneal injection of ketamine (160 mg/kg) and xylazine (8 mg/kg). The left buccal pouch was everted, fixed and isolated using a lead shield. Mucositis was evaluated clinically starting on Day 6 and continuing on alternate days until Day 28. The acute model has little systemic toxicity, resulting in few hamster deaths, thus permitting the use of smaller groups (n=7-8) for initial efficacy studies. It has abo been used to study specific mechanistic elements in the pathogenesis of mucositis.
The animals were divided into 6 treatment groups in which they were administered: Test agents (SG-11 or SG-11V5), a positive control (proprietary to Biomodels, LLC, Watertown, Mass.) or vehicle only were given by topical application to the left cheek pouch as detailed in Table 15 below.
On Day 0, morning dosing was performed at least 1 hour prior to irradiation and at least 1 hour post-irradiation (for PM dose). On Day 28, animals were euthanized and the left cheek pouch rom animals in Groups 1, and Groups 3-6 were excised, placed in a cryovial, snap frozen, and stored at −80° C. until shipment.
Starting on Day 6 and continuing every second day thereafter (Days 8, 10, 12, 14, 16, 18, 20, 22, 24, 26, 28) each animal was photographed and evaluated for mucositis scoring. For the evaluation of mucositis, the animals were anesthetized with an inhalation anesthetic and the left pouch everted. Mucositis was scored visually by comparison to a validated photographic scale (FIG. 37A), ranging from 0 for normal, to 5 for severe ulceration (clinical scoring). In descriptive terms, this scale is defined in Table 16.
A score of 1-2 is considered to represent a mild stage of the disease, whereas a score of […] is considered to indicate moderate to severe ulcerative mucositis. At the conclusion of the experiment, the photographs were randomly numbered and scored by two independent, trained observers who graded the images in blinded fashion using the above-described scale (blinded scoring). Hamsters reaching a mucositis severity score of 4 or higher received buprenorphine (0.5 mg/kg) SC twice a day for 48 hours or until score dropped below 4.
Statistical significance of observed differences was calculated using chi-squared analysis. The significance of differences observed between the control and treatment groups was evaluated by comparing the days with mucositis scores ≥3 and <3 between groups using chi-square analysis. The results of this analysis are shown in Table 17 far the entire study duration (through Day 28). Over the course of the study (Table 17), the percentage of animal days with a score of ≥3 in the Vehicle Group was 59.52%.

[3] = system: HCT8 enterocyte and HT29-MTX goblet cell lines; experiment: Oris Cell Migration assay (epithelial cell wound healing); assay type: cell-based, human; details: 48 hours; SG-11 1 μg/ml, EGF 30 ng/ml, staurosporine 100 nM; FIG. 2
Text: The 96 well Oris Cell Migration assay containing plugs preventing cell attachment in the center of each well was used according to the manufacturer's instructions (Platypus Technologies. Madison, Wis.).
The migration assay plates were warmed to room temperature prior to use and plugs were removed rom 100% confluence wells prior to cell addition. The HCT8 enterocyte and HT29-MTX goblet cell lines were used at a 9:1 ratio with a total of 5×10^4 total cells added per well (4.5×10^4 HCT8 cells and 0.5×10^4 HT29-MTX cells). Cells were incubated at 37° C.+5% CO2 for 24 hours. Plugs were then removed from all control and sample wells. Control wells included cells treated with the diluent vehicle as the blank, 30 ng/ml epidermal growth factor (EGF) as the positive control, and 100 nM staurosporine as the negative control, all diluted in cRPMI. Sample wells contained SG-11 protein (SEQ ID NO:9) at a concentration of 1 μg/ml diluted in eRPMI. 100% and 0% wells were cultured in cRPMI. […] The green fluorescent viability dye Calcenin AM was added to all wells at a concentration of 0.5 μg/min PBS containing 0.9 mM CaCl2 and 0.5 mM MgCl2, incubated for 30 min at 37° C.+5% CO2, the dye was removed and cells were washed in PBS containing 0.9 mM CaCl2 and 0.5 mM MgCl2, and fluorescence was measured. […] Samples were normalized between 100% and 0% samples and values expressed as a percent growth.

[4] = 0.75 mg/ml, 0.2 ml topical b.i.d., SG-11 Day 16, SG-11V5 Days 16 and 18, Vehicle 3.29

Row | Molecule | aggregation by analytical SEC ([1]; 4-days incubation at 37° C. in the presence of 2.5% (v/v) β-mercaptoethanol) | aggregation formation by analytical SEC ([1]; 4° C. for 3 weeks in Buffer C (100 mM sodium phosphate, pH 7.0, 0.5 M sorbitol), vs freshly thawed protein) | aggregation formation by analytical SEC ([1]; 37° C. for one week in Buffer C) | free sulfhydryl groups (Ellman's reagent assay) ([1]; SG-11 (SEQ ID NO:9)) | % Days ≥3 (percent of animal days with a mucositis score ≥3) ([2]; 0.75 mg/mL) [%] | Days <3 (animal days with a mucositis score <3) ([2]; 0.75 mg/mL) | Days ≥3 (animal days with a mucositis score ≥3) ([2]; 0.75 mg/mL) | peak mean mucositis score (scale 0-5) [2, 4] | days of improvement in mucositis scores compared to the Vehicle control group [2] | percent growth (epithelial cell wound healing) [3] | Days <3 (animal days with a mucositis score <3) ([2]; 0.075 mg/mL) | Days ≥3 (animal days with a mucositis score ≥3) ([2]; 0.075 mg/mL) | peak mean mucositis score (scale 0-5) ([2]; 0.075 mg/ml topical b.i.d., Days 16 and 18) | % Days ≥3 (percent of animal days with a mucositis score ≥3) ([2]; 0.24 mg/mL) [%] | Days <3 (animal days with a mucositis score <3) ([2]; 0.24 mg/mL) | Days ≥3 (animal days with a mucositis score ≥3) ([2]; 0.24 mg/mL) | peak mean mucositis score (scale 0-5) ([2]; 0.24 mg/ml topical b.i.d., Days 16 and 18)
1 | B1 | greatly suppressed | No noticeable change | clearly showed aggregation peaks | presence of free sulfhydryl groups | 50.00 | 96 | 96 | 3.25 | one day of improvement | significant increase in growth |  |  |  |  |  |  | 
2 | B2 |  |  |  |  |  | 120 | 72 | 2.63 | multiple days |  | 106 | 86 | 3.00 | 53.65 | 89 | 103 | 3.13
